In series [1] the test system is HCT-116 cells. The experiment in a line: HCT-116 western blot analysis (p53, MDM2, p21). It is filed as cell-based. Conditions: 6.123, 12.5 and 25 μM, 4 or 24 hours. Here is the method: Preparation of compound Stock and working Solutions: 10 mM or 1 mM stock solutions of compounds were prepared in 100% DMSO. Each compound was then serially diluted in 100% DMSO and further diluted 10-fold into HPLC grade sterile water to prepare 10× working solutions in 10% DMSO/water of each compound. Depending on the required volume used in the relevant assay, compounds were added to yield final concentrations as indicated in the relevant figure with a residual DMSO concentration of 1% v/v.
HCT116 cells (Thermo Fisher Scientific) were cultured in DMEM cell media, which was supplemented with 10% foetal calf serum (FBS) and penicillin/streptomycin. All cell lines were maintained in a 37° C. humidified incubator with 5% CO2 atmosphere. HCT116 cells were seeded into 96 well plates at a cell density of 60,000 cells per well and incubated overnight. Cells were also maintained in DMEM cell media with 10% fetal bovine serum (FBS) and penicillin/streptomycin. Cell media was then removed and replaced with cell media containing the various compounds/vehicle controls at the concentrations indicated in DMEM cell media with 2% FCS, After the stated incubation time (4 or 24 hours) cells were rinsed with PBS and then harvested in 100 μl of × NuPAGE LDS sample buffer supplied by Invitrogen (NP0008). […] Protein concentrations were measured by BCA assay (Pierce). […]

Series [2] deals with Jump-In™ T-REx™ CHO-K1 BLA cells. Kind of series: Tetracycline beta-lactamase reporter gene assay (counterscreen). It is filed as cell-based. Conditions: for EC50: read-out: Counterscreen EC50 (μM) (2% FBS) 16 H, 2% FBS, 16 H.
Experimental: Cells were seeded into a 384-well plate a density of 4000 cells per well. […] Measurements were carried out using Envision multiplate reader (Perkin-Elmer).
Series [3] relates to HCT116 p53 reporter cells. The experiment in a line: p53 beta-lactamase reporter gene assay. Format: cell-based. The settings on record: read-out: P53 activity EC50 (μM) (2% FBS) 16 H; HCT116 p53 reporter, 2% FBS, 16 H. A general note: Reporter assays use an easily measured gene product as a stand-in for the process of interest.
Experimental: The cells were incubated overnight and followed by removal of cell growth media and replaced with Opti-MEM either containing 0% FBS or 10% FBS. […] Measurements were done using Envision multiplate reader (Perkin-Elmer).
A short description of series [4]: Circular dichroism (CD) helicity of peptide in solution. It is filed as physicochemical. Conditions: 25° C. Background: CD spectra are sensitive to the conformation of chiral molecules.
Experimental: Prior to the experiment, 5 μl of the 10 mM stock peptide was mixed with 45 μl of 100% methanol, and dried for 2 hours in the SpeedVac concentrator (Thermo Scientific). The dried peptide was reconstituted in buffer, containing 1 mM HEPES pH 7.4 and 5% methanol, to a concentration of 1 mM. The peptide sample was placed in a quartz cuvette with a path length of 0.2 cm and the CD spectrum was recorded from 300 to 190 nm at 25° C., using the Chirascan-plus qCD machine (Applied Photophysics). […] An estimate of the secondary stmcture components of the peptide was carried out by converting the CD spectrum to mean residue ellipticity, before deconvoluting using the CDNN software (distributed by Applied Photophysics). All experiments were done in duplicates.
The target in series [5] is T1, MDM4 (Homo sapiens, UniProt O15151).
T1 construct: GST; made in house
T1 sequence (O15151 1-490): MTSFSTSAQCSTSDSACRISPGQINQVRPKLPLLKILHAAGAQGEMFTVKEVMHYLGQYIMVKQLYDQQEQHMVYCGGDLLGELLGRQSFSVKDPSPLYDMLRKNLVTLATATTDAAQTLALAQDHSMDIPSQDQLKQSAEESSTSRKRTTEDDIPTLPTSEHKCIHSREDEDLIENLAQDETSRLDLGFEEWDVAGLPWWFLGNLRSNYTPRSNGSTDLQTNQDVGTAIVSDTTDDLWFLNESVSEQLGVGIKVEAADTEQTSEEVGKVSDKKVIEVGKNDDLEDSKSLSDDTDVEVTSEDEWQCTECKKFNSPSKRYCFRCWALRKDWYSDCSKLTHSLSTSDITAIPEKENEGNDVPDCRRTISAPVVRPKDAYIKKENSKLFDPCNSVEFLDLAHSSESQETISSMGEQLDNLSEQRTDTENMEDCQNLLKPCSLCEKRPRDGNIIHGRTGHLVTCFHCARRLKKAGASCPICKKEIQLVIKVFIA
The experiment in a line: Fluorescence polarization (FP) binding to MDM4/MDMX. The settings on record: FP assay, MDM4 (MDMX). On the technique in general: Polarisation of emitted light reports the rotation of a fluorescent probe.

The target in series [6] is T2, MDM2 (Homo sapiens, UniProt Q00987).
T2 construct: GST (N); His6 (N); made in house; host or cells: E. coli BL21 (DE3) Rosetta T1R
Kind of series: Surface plasmon resonance (SPR) binding to MDM2. Conditions: MDM2.
Experimental: SPR experiments were performed with Biacore T100 (GE Healthcare) at 25° C. […] SPR buffer consisted of PBS pH 7.2, 1 mM DTT, 0.01% Tween 20, and 3% DMSO. The CMS chip was first conditioned with 100 mM HCl, followed by 0.1% SIDS, 50 mM NaOH and then water, all performed twice with 6 second injection at a flow rate of 100 μL/min. With the flow rate set to 10 μL/minutes, streptavidin (S4762. Sigma-Aldrich) was immobilized on the conditioned chip through amine coupling as described in the Biacore manual. Excess protein was removed by 30 second injection of the wash solution (50 mM NaOH+1M NaCl) for at least 8 times. The immobilized levels are 3400-3700 RU. The biotinylated MDM2 were captured to the streptavidin, to a level of ˜400 RU for MDM2. Flow cell consisted of only streptavidin was used as the reference surface. Using a flow rate of 30 μL/minutes, peptides dissolved in the SPR buffer are injected for 180 sec. The dissociation was monitored for 300 seconds. […] For single-cycle kinetics, five peptide concentrations were injected consecutively for 180 seconds, followed by a 4000 second dissociation. Similar injection of SPR buffer was followed to allow the surface to be regenerated, though not completely. After the run, responses from the target protein surface are transformed by (i) correcting with DMSO calibration curve, (ii) subtracting the responses obtained from the reference surface, and (iii) subtracting the responses of buffer injections from those of peptide injections. The last step is known as double referencing which corrects the systematic artefacts. The resulting responses were subjected to kinetic analysis by global fitting with 1:1 binding model.

The test system of series [7] is HCT116 cells. Kind of series: Lactate dehydrogenase (LDH) release assay. The settings on record: up to 50 μM. It is filed as cell-based.
Experimental: The cells were incubated overnight followed by removal of cell media and addition of Opti-MEM Medium without FBS. Cells were then treated with peptides for 4/16 hours in Opti-MEM either in 10% FBS or serum free. Final concentration of DMSO was 0.5%. […] Measurements were carried out using Tecan plate reader.
For series [8], the target named is T3, human MDM2 protein (amino acids 1-125) (Homo sapiens, UniProt Q00987). Kind of series: fluorescence polarization, MDM2.
For series [9], the target named is MDM4 protein (human) (UniProt O15151). The experiment in a line: fluorescence polarization assay on MDM4 (anisotropy falls with the peptide concentration; the labeled tracer used with MDM4 is not given).
Series [10] deals with T3, human MDM2 protein (amino acids 1-125). The experiment in a line: fluorescence anisotropy competition: unlabeled peptide titrated against the complex of MDM2 (250 nM) and FAM-labeled 12/1 peptide (50 nM).
Series [11] concerns the target MDM4 protein (human) (UniProt O15151). Kind of series: fluorescence polarization, MDM4.
The target of series [12] is T3, human MDM2 protein (amino acids 1-125). Kind of series: SPR, biotinylated MDM2 on streptavidin, peptide as analyte.
Series [13] has the same target. Kind of series: fluorescence anisotropy competition: unlabeled peptide titrated against the complex of MDM2 (250 nM) and FAM-labeled 12/1 peptide (50 nM). The source holds these as a separate data set.
Series [14] shares this target. The experiment in a line: fluorescence polarization competition, FAM-12/1 tracer, MDM2.
Series [15] has the same target. Kind of series: cell-based or functional assay.
For series [16] the target is unchanged. Kind of series: fluorescence polarization competition, MDM2.
For series [17] the target is unchanged. The experiment in a line: fluorescence polarization competition, FAM-12/1 tracer, MDM2; FP assay: no binding, Kd capped at 10000 nM.

Read-outs that look alike come from different tables or passages of the source. Positions of bridges follow the written chain, without caps; N, C: chain ends. Non-standard residues stand in square brackets, D forms with d. No end group written: not given here. dPhe(4-CF3) = N[C@H](Cc1ccc(C(F)(F)F)cc1)C(=O)O; dTrp(6-F) = N[C@H](Cc1c[nH]c2cc(F)ccc12)C(=O)O; R8 = C=CCCCCCC[C@@](C)(N)C(=O)O; R5 = C=CCCC[C@@](C)(N)C(=O)O; S5 = C=CCCC[C@](C)(N)C(=O)O

T3 sequence (Q00987 1-125 limits assumed): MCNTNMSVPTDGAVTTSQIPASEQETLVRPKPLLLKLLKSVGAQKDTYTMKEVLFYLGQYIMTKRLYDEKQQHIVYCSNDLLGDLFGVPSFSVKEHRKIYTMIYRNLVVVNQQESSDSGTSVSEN
T2 sequence (Q00987 1-125): as the sequence (Q00987 1-125 limits assumed) above

In the case of `CC(=O)N[C@@H](CC(C)C)C(=O)N[C@H](C(=O)N[C@@H](Cc1ccccc1)C(=O)N[C@]1(C)CCCCCCC=CCCC[C@@](C)(C(=O)N[C@@H](CO)C(=O)N[C@@H](C)C(=O)N[C@@H](C)C(N)=O)NC(=O)[C@H](CC2CCC2)NC(=O)[C@H](CCC(N)=O)NC(=O)[C@H](C)NC(=O)[C@H](Cc2c[nH]c3ccccc23)NC(=O)[C@H](Cc2ccc(O)cc2)NC(=O)[C@H](CCC(=O)O)NC1=O)[C@@H](C)O` [ATSP-7041, reference compound], the “Western blot: stabilization of MDM2 and activation of p53” value in series [1] is “Stabilization of MDM2 and activation of p53”. Moreover, the EC50 in series [2] was no less than 50 µM; in series [3], 1.8 µM.

`CC(C)C[C@H]1NC(=O)[C@@H](CCCCN)NC(=O)[C@@H](CCC(=O)O)NC(=O)[C@@H](Cc2ccc(C(F)(F)F)cc2)NC(=O)[C@@H](CC(N)=O)NC(=O)[C@]2(CCC/C=C\CCCCCC[C@](C)(C(N)=O)NC(=O)[C@@H](CC(C)C)NC1=O)CCC/C=C\CCC[C@@](C)(N)C(=O)N[C@H](C)C(=O)N[C@H](Cc1c[nH]c3cc(F)ccc13)C(=O)N[C@H](Cc1ccc(O)cc1)C(=O)N2` [^DPMI-δ (1-5-12)]: in series [1], the “Western blot: stabilization of MDM2 and activation of p53” value is “Stabilization of MDM2 and activation of p53”. For the same molecule, the “counterscreen activity” value in [2] is “negligible counter screen activity”. In addition, the EC50 in series [2] was no less than 50 µM; in series [3], 4 µM. Besides, the entries for the “CD (% helicity)” value in [4], in series [4] (listed as DPMI-δ(1,5,12)) and in [4] (listed as stitched peptide) were 52.1%, 52% and 52%, respectively. Moreover, the results for the Kd in series [5], in [6] (Table 1) and in series [6] (Table 2) were 12.5 nM, less than 1 nM and less than 1 nM, respectively. Besides, the “LDH leakage” value in [7] is given as “No detectable LDH leakage”.

In the case of ATSP-7041 (peptide), the Kd in series [8] is 2 nM; in series [11], 4.5 nM; in series [12] it was less than 1 nM. Moreover, the IC50 (read off the curve) in series [9] stood at 1000 nM; in series [10], 500 nM.

B1: ^DPMI-δ(1,5,12) (peptide)
peptide: XAXYXNXEKLLX
modifications: all alpha-amino acids have a D configuration; Xaa1 is R5 ((R)-2-(4'-pentenyl)-alanine), Xaa5 is B5 (2,2-(4'-pentenyl)-glycine), Xaa12 is R8 ((R)-2-(7'-octenyl)-alanine), joined by a hydrocarbon stitch 1-5 and 5-12 with residue 5 in common; Xaa3 is 6-F-Trp; Xaa7 is p-CF3-Phe; Xaa12 optionally has a C-terminal amide; Xaa1 optionally has a N-terminal acyl
As to B1, the IC50 (read off the curve) in [13] stood at 200 nM; in series [9], 1000 nM. Moreover, the figures for the Kd in series [14] and in series [12] were 4.25 nM and less than 1 nM, respectively. Moreover, in [15], the P53 activity EC50 (µM) (2% FBS) 16 H was 4 µM. Moreover, the fold increase in affinity as compared to ^DPMI-δ(1-5) and ^DPMI-δ(5-12) in [16] fell in the range of 10 to 100 fold.

B2: ^DPMI-δ(1-5,9-12) (peptide)
peptide: [R5][dA][dTrp(6-F)][dY][R5][dN][dPhe(4-CF3)][dE][S5][dL][dL][R8]-NH2
modifications: staple 1-5, 9-12
For the molecule B2, the IC50 (read off the curve) was determined as 200 nM in series [13] and 2000 nM in series [9]. The results for the Kd in series [14] and in [12] were 0.7 nM and less than 1 nM, respectively. Besides, the P53 activity EC50 (µM) (2% FBS) 16 H in [15] was found to be 34.6 µM. The fold increase in affinity as compared to ^DPMI-δ(1-5) and ^DPMI-δ(5-12) in series [16] lay within 10 to 100 fold.

B3: ^DPMI-δ(5-9) (peptide)
peptide: [dT][dA][dTrp(6-F)][dY][R5][dN][dPhe(4-CF3)][dE][R5][dL][dL][dR]-NH2
modifications: staple 5-9
In series [17], B3 yielded a Kd greater than 10000 nM. In addition, the P53 activity EC50 (µM) (2% FBS) 16 H in series [15] is greater than 50 µM.

As usually defined, the EC50 is the concentration needed to bring the measured effect to its halfway point. The term Kd denotes the concentration at which binding is half-saturated.

(Values after patent US20220267376A1, “P53 ACTIVATOR PEPTIDOMIMETIC MACROCYCLES” (Merck Sharp & Dohme Corp., priority 2019, published 2022).)
